Laboratory results taken from patent US20140348819A1, “Methods of Treating Cancer” (Dana-Farber Cancer Institute, Inc., priority 2011, published 2014).

Tested on: six V600E BRAF melanoma cell lines
Assay: Screening of recombinant RTK ligands for ability to confer resistance to BRAFi (PLX4720) or MEKi (PD184352) (Table 4)
Assay type: cell-based, human
Summary of the method: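 Resistance to BRAFi (PLX4720) or MEKi (PD184352) was tested in six V600E BRAF melanoma lines given one of 22 recombinant RTK ligands. For a subset of RTKs, activation was checked by high-throughput tyrosine kinase phosphorylation profiling and western blot.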

B1: MSP (protein, UniProt P26927 19-711, looked up)
Hepatocyte growth factor-like …: QRSPLNDFQVLRGTELQHLLHAVVPGPWQEDVADAEECAGRCGPLMDCRAFHYNVSSHGCQLLPWTQHSPHTRLRRSGRCDLFQKKDYVRTCIMNNGVGYRGTMATTVGGLPCQAWSHKFPNDHKYTPTLRNGLEENFCRNPDGDPGGPWCYTTDPAVRFQSCGIKSCREAACVWCNGEEYRGAVDRTESGRECQRWDLQHPHQHPFEPGKFLDQGLDDNYCRNPDGSERPWCYTTDPQIEREFCDLPRCGSEAQPRQEATTVSCFRGKGEGYRGTANTTTAGVPCQRWDAQIPHQHRFTPEKYACKDLRENFCRNPDGSEAPWCFTLRPGMRAAFCYQIRRCTDDVRPQDCYHGAGEQYRGTVSKTRKGVQCQRWSAETPHKPQFTFTSEPHAQLEENFCRNPDGDSHGPWCYTMDPRTPFDYCALRRCADDQPPSILDPPDQVQFEKCGKRVDRLDQRRSKLRVVGGHPGNSPWTVSLRNRQGQHFCGGSLVKEQWILTARQCFSSCHMPLTGYEVWLGTLFQNPQHGEPSLQRVPVAKMVCGPSGSQLVLLKLERSVTLNQRVALICLPPEWYVVPPGTKCEIAGWGETKGTGNDTVLNVALLNVISNQECNIKHRGRVRESEMCTEGLLAPVGACEGDYGGPLACFTHNCWVLEGIIIPNRVCARSRWPAVFTRVSVFVDWIHKVMRLG
**Q.** Which “ability of recombinant RTK ligand to confer resistance” value (shortened to “ability of recombinant RTK ligand”) (A2058, PD184352 - 1 uM, ligand 0.4 ng/ml) does the source give for B1 here?
**A.** The value was 1.06.

**Q.** And the “ability of recombinant RTK ligand” value (A2058, PD184352 - 1 uM, ligand 1.6 ng/ml)?
**A.** Its value is 0.98.

**Q.** And the “ability of recombinant RTK ligand” value (A2058, PD184352 - 1 uM, ligand 6.25 ng/ml)?
**A.** Its value is 1.03.

**Q.** And the “ability of recombinant RTK ligand” value (A2058, PD184352 - 1 uM, ligand 25 ng/ml)?
**A.** Its value is 1.09.

**Q.** And the “ability of recombinant RTK ligand” value (A2058, PD184352 - 1 uM, ligand 100 ng/ml)?
**A.** Its value is 1.05.

**Q.** And the “ability of recombinant RTK ligand” value (A2058, PLX4720 - 2 uM, ligand 0.4 ng/ml)?
**A.** Its value is 1.04.

**Q.** What about the “ability of recombinant RTK ligand” value (A2058, PLX4720 - 2 uM, ligand 1.6 ng/ml) of the same molecule?
**A.** The value was 1.02.

**Q.** And the “ability of recombinant RTK ligand” value (A2058, PLX4720 - 2 uM, ligand 6.25 ng/ml)?
**A.** The value was 1.05.

**Q.** And the “ability of recombinant RTK ligand” value (A2058, PLX4720 - 2 uM, ligand 25 ng/ml)?
**A.** The value was 1.04.

**Q.** What about the “ability of recombinant RTK ligand” value (A2058, PLX4720 - 2 uM, ligand 100 ng/ml) of the same molecule?
**A.** The value was 1.05.

**Q.** What about the “ability of recombinant RTK ligand” value (C32, PD184352 - 1 uM, ligand 0.4 ng/ml) of the same molecule?
**A.** The value was 0.99.

**Q.** And the “ability of recombinant RTK ligand” value (C32, PD184352 - 1 uM, ligand 1.6 ng/ml)?
**A.** Its value is 1.02.

**Q.** And the “ability of recombinant RTK ligand” value (C32, PD184352 - 1 uM, ligand 6.25 ng/ml)?
**A.** Its value is 1.07.

**Q.** What about the “ability of recombinant RTK ligand” value (C32, PD184352 - 1 uM, ligand 25 ng/ml) of the same molecule?
**A.** Its value is 1.01.

**Q.** And the “ability of recombinant RTK ligand” value (C32, PD184352 - 1 uM, ligand 100 ng/ml)?
**A.** The value was 0.95.

**Q.** What about the “ability of recombinant RTK ligand” value (C32, PLX4720 - 2 uM, ligand 0.4 ng/ml) of the same molecule?
**A.** Its value is 1.07.

**Q.** What about the “ability of recombinant RTK ligand” value (C32, PLX4720 - 2 uM, ligand 1.6 ng/ml) of the same molecule?
**A.** Its value is 1.01.

**Q.** What about the “ability of recombinant RTK ligand” value (C32, PLX4720 - 2 uM, ligand 6.25 ng/ml) of the same molecule?
**A.** The value was 1.04.

**Q.** What about the “ability of recombinant RTK ligand” value (C32, PLX4720 - 2 uM, ligand 25 ng/ml) of the same molecule?
**A.** Its value is 1.02.

**Q.** What about the “ability of recombinant RTK ligand” value (C32, PLX4720 - 2 uM, ligand 100 ng/ml) of the same molecule?
**A.** Its value is 0.95.

**Q.** What about the “ability of recombinant RTK ligand” value (Colo 829, PD184352 - 1 uM, ligand 0.4 ng/ml) of the same molecule?
**A.** The value was 1.03.

**Q.** What about the “ability of recombinant RTK ligand” value (Colo 829, PD184352 - 1 uM, ligand 1.6 ng/ml) of the same molecule?
**A.** The value was 0.98.

**Q.** And the “ability of recombinant RTK ligand” value (Colo 829, PD184352 - 1 uM, ligand 6.25 ng/ml)?
**A.** The value was 1.01.

**Q.** What about the “ability of recombinant RTK ligand” value (Colo 829, PD184352 - 1 uM, ligand 25 ng/ml) of the same molecule?
**A.** Its value is 0.96.

**Q.** And the “ability of recombinant RTK ligand” value (Colo 829, PD184352 - 1 uM, ligand 100 ng/ml)?
**A.** The value was 0.93.

**Q.** What about the “ability of recombinant RTK ligand” value (Colo 829, PLX4720 - 2 uM, ligand 0.4 ng/ml) of the same molecule?
**A.** The value was 0.98.

**Q.** And the “ability of recombinant RTK ligand” value (Colo 829, PLX4720 - 2 uM, ligand 1.6 ng/ml)?
**A.** The value was 0.94.

**Q.** What about the “ability of recombinant RTK ligand” value (Colo 829, PLX4720 - 2 uM, ligand 6.25 ng/ml) of the same molecule?
**A.** The value was 1.03.

**Q.** And the “ability of recombinant RTK ligand” value (Colo 829, PLX4720 - 2 uM, ligand 25 ng/ml)?
**A.** The value was 0.97.

**Q.** What about the “ability of recombinant RTK ligand” value (Colo 829, PLX4720 - 2 uM, ligand 100 ng/ml) of the same molecule?
**A.** Its value is 0.99.

**Q.** And the “ability of recombinant RTK ligand” value (G-361, PD184352 - 1 uM, ligand 0.4 ng/ml)?
**A.** The value was 1.04.

**Q.** What about the “ability of recombinant RTK ligand” value (G-361, PD184352 - 1 uM, ligand 1.6 ng/ml) of the same molecule?
**A.** The value was 0.96.

**Q.** What about the “ability of recombinant RTK ligand” value (G-361, PD184352 - 1 uM, ligand 6.25 ng/ml) of the same molecule?
**A.** Its value is 0.92.

**Q.** And the “ability of recombinant RTK ligand” value (G-361, PD184352 - 1 uM, ligand 25 ng/ml)?
**A.** Its value is 0.98.

**Q.** What about the “ability of recombinant RTK ligand” value (G-361, PD184352 - 1 uM, ligand 100 ng/ml) of the same molecule?
**A.** Its value is 0.90.

**Q.** What about the “ability of recombinant RTK ligand” value (G-361, PLX4720 - 2 uM, ligand 0.4 ng/ml) of the same molecule?
**A.** Its value is 1.00.

**Q.** And the “ability of recombinant RTK ligand” value (G-361, PLX4720 - 2 uM, ligand 1.6 ng/ml)?
**A.** The value was 0.89.

**Q.** And the “ability of recombinant RTK ligand” value (G-361, PLX4720 - 2 uM, ligand 6.25 ng/ml)?
**A.** Its value is 0.91.

**Q.** What about the “ability of recombinant RTK ligand” value (G-361, PLX4720 - 2 uM, ligand 25 ng/ml) of the same molecule?
**A.** Its value is 0.93.

**Q.** And the “ability of recombinant RTK ligand” value (G-361, PLX4720 - 2 uM, ligand 100 ng/ml)?
**A.** Its value is 0.88.

**Q.** And the “ability of recombinant RTK ligand” value (SK-MEL-5, PD184352 - 1 uM, ligand 0.4 ng/ml)?
**A.** The value was 0.94.

**Q.** And the “ability of recombinant RTK ligand” value (SK-MEL-5, PD184352 - 1 uM, ligand 1.6 ng/ml)?
**A.** Its value is 1.11.

**Q.** And the “ability of recombinant RTK ligand” value (SK-MEL-5, PD184352 - 1 uM, ligand 6.25 ng/ml)?
**A.** The value was 1.00.

**Q.** And the “ability of recombinant RTK ligand” value (SK-MEL-5, PD184352 - 1 uM, ligand 25 ng/ml)?
**A.** Its value is 0.99.

**Q.** What about the “ability of recombinant RTK ligand” value (SK-MEL-5, PD184352 - 1 uM, ligand 100 ng/ml) of the same molecule?
**A.** Its value is 1.11.

**Q.** What about the “ability of recombinant RTK ligand” value (SK-MEL-5, PLX4720 - 2 uM, ligand 0.4 ng/ml) of the same molecule?
**A.** Its value is 0.87.

**Q.** What about the “ability of recombinant RTK ligand” value (SK-MEL-5, PLX4720 - 2 uM, ligand 1.6 ng/ml) of the same molecule?
**A.** The value was 1.03.

**Q.** And the “ability of recombinant RTK ligand” value (SK-MEL-5, PLX4720 - 2 uM, ligand 6.25 ng/ml)?
**A.** Its value is 0.98.

**Q.** And the “ability of recombinant RTK ligand” value (SK-MEL-5, PLX4720 - 2 uM, ligand 25 ng/ml)?
**A.** The value was 1.01.

**Q.** What about the “ability of recombinant RTK ligand” value (SK-MEL-5, PLX4720 - 2 uM, ligand 100 ng/ml) of the same molecule?
**A.** The value was 1.12.

**Q.** And the “ability of recombinant RTK ligand” value (SK-MEL-28, PD184352 - 1 uM, ligand 0.4 ng/ml)?
**A.** The value was 0.95.

**Q.** And the “ability of recombinant RTK ligand” value (SK-MEL-28, PD184352 - 1 uM, ligand 1.6 ng/ml)?
**A.** The value was 0.94.

**Q.** What about the “ability of recombinant RTK ligand” value (SK-MEL-28, PD184352 - 1 uM, ligand 6.25 ng/ml) of the same molecule?
**A.** Its value is 1.00.

**Q.** What about the “ability of recombinant RTK ligand” value (SK-MEL-28, PD184352 - 1 uM, ligand 25 ng/ml) of the same molecule?
**A.** The value was 1.01.

**Q.** What about the “ability of recombinant RTK ligand” value (SK-MEL-28, PD184352 - 1 uM, ligand 100 ng/ml) of the same molecule?
**A.** Its value is 0.97.

**Q.** What about the “ability of recombinant RTK ligand” value (SK-MEL-28, PLX4720 - 2 uM, ligand 0.4 ng/ml) of the same molecule?
**A.** The value was 0.92.

**Q.** What about the “ability of recombinant RTK ligand” value (SK-MEL-28, PLX4720 - 2 uM, ligand 1.6 ng/ml) of the same molecule?
**A.** The value was 1.02.

**Q.** And the “ability of recombinant RTK ligand” value (SK-MEL-28, PLX4720 - 2 uM, ligand 6.25 ng/ml)?
**A.** Its value is 1.00.

**Q.** And the “ability of recombinant RTK ligand” value (SK-MEL-28, PLX4720 - 2 uM, ligand 25 ng/ml)?
**A.** Its value is 0.97.

**Q.** And the “ability of recombinant RTK ligand” value (SK-MEL-28, PLX4720 - 2 uM, ligand 100 ng/ml)?
**A.** Its value is 0.93.
